{"source": "patent US20030228627", "biological_target": "Full-length human Flag-tagged p53 (native, unacetylated) (UniProt P04637)", "data": [{"substance": "Full-length human histidine-tagged p300", "values": [{"measurement": "acetylation of p53 by p300 in the presence of 3H-acetyl CoA (electrophoresis, fluorography)", "result": "p300 efficiently acetylated p53"}]}]}
